{"source": "patent US10421785B2", "about": "“Delta receptor agonist peptides and use thereof” (BAR-ILAN UNIVERSITY, priority 2016, dated 2019)", "key": {"Sprague-Dawley rats": {"test_system": "Sprague-Dawley rats", "experiment": "Cue-induced cocaine-seeking behavioral test after forced abstinence"}, "μ-opioid receptor": {"biological_target": "T1, μ-opioid receptor (Rattus norvegicus, UniProt P33535)", "T1 construct": "50% expressed the μ-opioid receptor; endogenous in cells; host or cells: C6 glioma cells", "T1 sequence (P33535 whole entry)": "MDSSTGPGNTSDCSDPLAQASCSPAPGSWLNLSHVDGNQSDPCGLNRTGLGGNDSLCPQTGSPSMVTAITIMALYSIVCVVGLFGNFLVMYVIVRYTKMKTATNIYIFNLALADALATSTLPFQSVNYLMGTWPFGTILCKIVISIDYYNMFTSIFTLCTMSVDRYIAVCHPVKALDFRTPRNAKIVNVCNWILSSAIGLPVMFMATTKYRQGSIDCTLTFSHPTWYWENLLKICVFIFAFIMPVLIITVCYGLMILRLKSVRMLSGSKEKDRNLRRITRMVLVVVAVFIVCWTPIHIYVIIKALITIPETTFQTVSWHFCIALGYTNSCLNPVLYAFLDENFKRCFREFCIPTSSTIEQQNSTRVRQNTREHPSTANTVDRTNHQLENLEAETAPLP", "experiment": "Competitive flow cytometry assay of free peptides against DAMGO-FITC on C6 cells", "type": "binding", "details": "2 nM DAMGO-FITC", "description": "(§1) The derived peptides were synthesized (Pepmic, Suzhou, China). The binding specificity of the peptides was tested in a competitive assay. C6 cells were grown to 70-80% confluence and removed from the culture, centrifuged and re-suspended to 2×10^6/ml in PBS/0.05% FBS.DSLET-FITC (3.5 nM) was mixture with 0, 3.5, 10, 50 or 100 nM of peptide. In parallel, 2 nM DAMGO-FITC was mixture with 0, 2, 10, 50 or 100 nM of peptide. These mixtures (500 μl) were added to the cells for 5 min at 37° C. Then 500 μl PBS was added and the tubes centrifuge for 5 min at 4250 rpm. The cell pellet was re-suspended in PBS and analyzed by flow cytometry."}, "[1]": {"biological_target": "T2, δ-opioid receptor (DOR) expressed on C6 cells (Rattus norvegicus, UniProt P33533)", "T2 construct": "delta opioid receptor expressed by the C6 cells; endogenous in cells; host or cells: C6 glioma cells", "T2 sequence (P33533 whole entry)": "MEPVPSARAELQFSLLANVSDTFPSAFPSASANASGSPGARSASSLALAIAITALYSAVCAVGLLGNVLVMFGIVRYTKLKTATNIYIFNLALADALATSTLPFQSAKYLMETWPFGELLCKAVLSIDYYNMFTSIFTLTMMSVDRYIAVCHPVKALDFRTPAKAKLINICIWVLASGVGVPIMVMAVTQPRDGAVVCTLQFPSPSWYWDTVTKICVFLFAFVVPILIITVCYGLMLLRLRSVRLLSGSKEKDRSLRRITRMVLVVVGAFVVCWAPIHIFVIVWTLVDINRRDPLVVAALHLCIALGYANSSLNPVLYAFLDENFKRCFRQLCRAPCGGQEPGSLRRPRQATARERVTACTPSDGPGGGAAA", "experiment": "Intracellular cyclic AMP in C6 cells (Direct cAMP kit / cAMP ELISA)", "type": "cell-based", "details": "for reduction of cAMP levels: 100 nM, C6 cells", "description": "To test the pharmacological function of the peptides showing positive competitive binding versus the DSLET analogue and negative competition versus the DMGO analogue were tested for agonistic activity using the Direct cAMP kit (Enzo). The analogue DSLET was used as a positive control."}, "δ-opioid receptor": {"biological_target": "T3, δ-opioid receptor (Rattus norvegicus, UniProt P33533)", "T3 construct": "delta opioid receptor expressed by the C6 cells; endogenous in cells; host or cells: C6 glioma cells", "T3 sequence (P33533 whole entry)": "as above", "experiment": "Competitive flow cytometry assay of free peptides against DSLET-FITC on C6 cells", "type": "binding", "details": "100 nM peptide, 3.5 nM DSLET-FITC", "description": "as §1"}, "C6 cells membrane (DOR)": {"biological_target": "T4, C6 cells membrane (DOR) (Rattus norvegicus, UniProt P33533)", "T4 construct": "delta opioid receptor expressed by the C6 cells; endogenous in cells; host or cells: C6 glioma cells", "T4 sequence (P33533 whole entry)": "as above", "experiment": "Microscope validation of GNP-peptide binding to C6 cells", "type": "cell-based", "description": "(§2) C6 cells (1×10^6) were cultured in 5 ml glucose-free DMEM medium containing 5% FCS, 0.5% Penicillin and 0.5% Glutamine. Then, excess amounts of GNPs were added and incubated with cells for 30 minutes at 37° C.\nFluorescent coated (Rhodamine B, Sigma, Israel) GNP-peptidl were incubated with C6 cells for 30 min at 37° C. The cells were subsequently washed three times in PBS prior to confocal imaging using Leica TCS SP5 with Acousto-Optical Beam Splitter microscope to acquire fluorescent and bright field images.\nA Nikon i50 microscope (Tokyo, Japan) equipped with a hyperspectral imaging system (CRI, USA) was used to obtain dark-field images (20× magnification) in order to assess nanoparticle uptake."}, "[2]": {"biological_target": "T5, delta opioid receptor expressed by the C6 cells (Rattus norvegicus, UniProt P33533)", "T5 construct": "delta opioid receptor expressed by the C6 cells; endogenous in cells; host or cells: C6 glioma cells", "T5 sequence (P33533 whole entry)": "as above", "experiment": "FACS analysis of GNP-peptide binding to C6 cells", "description": "as §2\nCells were incubated with GNP-peptide for 15 min at 37° C. and then washed with PBS, followed by trypsin treatment. Then, cells were centrifuged twice (5 min in 1000 rpm) to wash out unbound nanoparticles. Cells were analyzed for cell-associated NPs by Flow Cytometry (FACS; Cellquest software; Becton-Dickinson & Co., Franklin Lakes, N.J.)."}}, "note": "Entries after “also recorded” stand apart in the source; their conditions may differ. Where no end group is shown, it is not given here."}
{"compound": "NGNDRTDQMPLP [Peptide 1]", "values": [{"measurement": "active lever presses vs CSF group", "setting": "Sprague-Dawley rats; injection into the NAc, two doses", "result": "decreased active lever presses"}, {"measurement": "inhibition of DAMGO-FITC binding to the μ-opioid receptor", "setting": "μ-opioid receptor", "result": "neither Peptide 1 or 2 inhibited binding"}, {"measurement": "reduction of cAMP levels", "setting": "[1]", "result": "~80", "unit": "%"}, {"measurement": "maximum inhibition of DSLET-FITC binding", "setting": "δ-opioid receptor", "result": 48, "unit": "%"}]}
{"compound": "IIAGEYKQMLTL [Peptide 2]", "values": [{"measurement": "inhibition of DAMGO-FITC binding to the μ-opioid receptor", "setting": "μ-opioid receptor", "result": "neither Peptide 1 or 2 inhibited binding"}, {"measurement": "reduction of cAMP levels", "setting": "[1]", "result": "~80", "unit": "%"}, {"measurement": "maximum inhibition of DSLET-FITC binding", "setting": "δ-opioid receptor", "result": 45, "unit": "%"}]}
{"compound": "DPDPE [reference compound]", "values": [{"measurement": "active lever presses (seeking behavior) vs CSF group", "setting": "Sprague-Dawley rats; injected into the NAc once after 30 days of abstinence, observed at days 30 and 60", "result": "reduced seeking behavior"}]}
{"compound": "Oc1ccc2c3c1O[C@H]1c4[nH]c5ccccc5c4C[C@@]4(O)[C@@H](C2)N(CC2CC2)CC[C@]314", "note": "[naltrindole, reference compound]", "values": [{"measurement": "cue-induced cocaine-seeking behavior", "setting": "Sprague-Dawley rats; intra-NAc infusion, 1 μg, day 1 of forced abstinence", "result": "increased cue-induced cocaine-seeking behavior"}, {"measurement": "binding of GNP conjugated peptide 1 to the cells membrane after blocking the DOR", "setting": "C6 cells membrane (DOR)", "result": "significant decrease in the binding; also recorded: prevented the binding of the peptide to the cells membrane"}]}
{"compound": "CTAP [reference compound]", "values": [{"measurement": "cue-induced cocaine-seeking behavior", "setting": "Sprague-Dawley rats; intra-NAc injection, 3 μg and 30 ng, 1 day or 30 days of forced abstinence", "result": "no behavioral effect"}]}
{"compound": "peptide 1 conjugated to gold nanoparticles: 20 nm PEG-coated gold nanoparticles with the peptide covalently conjugated to the carboxylic group of SH-PEG-COOH (NGNDRTDQMPLP; also: covalently conjugated to carboxyl of SH-PEG-COOH on 20 nm PEG-coated gold nanoparticles, site not given here)", "values": [{"measurement": "binding to the delta opioid receptor on C6 cells by FACS relative to vehicle", "setting": "[2]", "result": "higher affinity and exhibited better binding to the cells relative to vehicle"}, {"measurement": "active lever presses vs CSF group", "setting": "Sprague-Dawley rats; GNP conjugate, injection into the NAc", "result": "decreased active lever presses"}, {"measurement": "active lever presses vs CSF group", "setting": "Sprague-Dawley rats; GNP conjugate, intra-nasal, tested two hours later", "result": "Significantly less active lever presses"}, {"measurement": "cAMP decreased to % from the initiation state", "setting": "[1]; GNP conjugated to peptide 1, C6 cells", "result": 80.70, "unit": "%"}, {"measurement": "binding to the C6 cells membrane (microscope)", "setting": "C6 cells membrane (DOR); listed as Gold nanoparticle (GNP) conjugated peptide 1", "result": "bind mainly the C6 cells membrane"}, {"measurement": "binding to the C6 cells membrane (microscope)", "setting": "C6 cells membrane (DOR); listed as Peptide 1 conjugated to GNP", "result": "increased binding to the C6 cells membrane"}]}
